Test results from publication PMC8834691, “Deletion of Specific Conserved Motifs from the N-Terminal Domain of αB-Crystallin Results in the Activation of Chaperone Functions” (International Journal of Molecular Sciences, 2022).

B1: αB-crystallin with residues 54–61 deleted (natural protein, human, UniProt P02511 1-175, looked up)
chain: MDIAIHHPWIRRPFFPFHSPSRLFDQFFGEHLLESDLFPTSTSLSPFYLRPPSDTGLSEMRLEKDRFSVNLDVKHFSPEELKVKVLGDVIEVHGKHEERQDEHGFISREFHRKYRIPADVDPLTITSSLSSDGVLTVNGPRKQVSGPERTIPITREEKPAVTAAPKK
notes: Polydisperse homo-oligomer (average molar mass 262 kDa by MALS); also called αBΔ54–61; αB∆54–61; source: E. coli BL21(DE3) pLysS, purified (45% ammonium sulfate precipitation, Superdex G200 gel filtration)
B2: wild-type αB-crystallin (natural protein, human, UniProt P02511 1-175, looked up)
chain: MDIAIHHPWIRRPFFPFHSPSRLFDQFFGEHLLESDLFPTSTSLSPFYLRPPSFLRAPSWFDTGLSEMRLEKDRFSVNLDVKHFSPEELKVKVLGDVIEVHGKHEERQDEHGFISREFHRKYRIPADVDPLTITSSLSSDGVLTVNGPRKQVSGPERTIPITREEKPAVTAAPKK
notes: αB-crystallin, human, wild type, recombinant; called full-length αB-WT; Polydisperse homo-oligomer (average molar mass 558 kDa by MALS); also called αB-WT; WT-αB; source: E. coli BL21(DE3) pLysS, purified (45% ammonium sulfate precipitation, Superdex G200 gel filtration)
B3: αB-crystallin with residues 21–28 and 54–61 deleted (natural protein, human, UniProt P02511 1-175, looked up)
chain: MDIAIHHPWIRRPFFPFHSPGEHLLESDLFPTSTSLSPFYLRPPSDTGLSEMRLEKDRFSVNLDVKHFSPEELKVKVLGDVIEVHGKHEERQDEHGFISREFHRKYRIPADVDPLTITSSLSSDGVLTVNGPRKQVSGPERTIPITREEKPAVTAAPKK
notes: Gene from GenScript in pET23a(+), without the C-terminal His-tag; the in-frame T7 tag was removed by PCR; Small homo-oligomer, average molar mass 85 kDa, on average close to four subunits; also called αBΔ21–28, Δ54–61; αB∆21–28, ∆54–61; source: E. coli BL21(DE3) pLysS, purified (45% ammonium sulfate precipitation, Superdex G200 gel filtration)

Biological target: the molecule itself
Experiment: SEC-MALS; 0.1 mg protein in 0.25 mL phosphate buffer, incubated at 37 °C for 1 h; TSK G5000PWXL column, 0.75 mL/min; subunits per oligomer = oligomeric mass divided by subunit mass

Protein	binding result	stoichiometry N [subunits per oligomer]
B1	binds	–
B2	binds	–
B3	–	~4
